In patent US20040019193A1, “Mob-5/hmob-5 as a cancer diagnostic marker” (priority 2002, published 2004):

Target: T1, hMob-5 (Homo sapiens, UniProt Q13007)
T1 sequence (Q13007 1-207 isoform Q13007-2): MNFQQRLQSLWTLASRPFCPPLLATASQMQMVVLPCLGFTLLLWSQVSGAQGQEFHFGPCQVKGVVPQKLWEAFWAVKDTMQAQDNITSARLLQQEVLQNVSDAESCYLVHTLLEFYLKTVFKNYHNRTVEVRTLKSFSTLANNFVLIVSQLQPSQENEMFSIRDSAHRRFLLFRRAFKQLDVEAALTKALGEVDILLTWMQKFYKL
Assay: GBA bead capture ELISA for Mob-5, standard curve
Procedure: This allows the use of GBA in a method for detecting Mob-5 in an ELISA. GBA is utilized to capture the antigen (i.e. Mob-5) and a biotinylated monoclonal antibody to Mob-5 is used to detect the antigen. The use of GBA allows for higher capacity and lower costs when compared to the traditional ELISA method. The method is performed by diluting a biotinylated Mab-hMob-5 (for example, the monoclonal antibody produced from hybridoma clone L-14) 1:500 in PBST (Phosphate Buffered Saline, Tween 0.05%); diluting Streptavidin-HRP (Sigma) 1:500 in PBST; mixing the diluted Mab-hMob-5 with the diluted Streptavidin-HRP in equal volume (for example, […]); letting the mixture sit for 5-10 minutes; washing the GBA beads with PBST twice; spinning and removing the upper liquid phase with an aspirator; resuspending the washed GBA beads in PBST as a 50% suspension; mixing […] of a sample with 100 ml of the diluted Mab-hMob-5 and Streptavidin-HRP mixture in a tube; adding […] of resuspended GBA beads to the tube; allowing the tube to rotate on a roller for 1-2 hours; spinning down the GBA beads for 2 minutes; aspirating the supernatant; washing the beads with 1 ml of PBST twice; washing the beads with dH20 twice; removing the supernatant; adding […] of horseradish peroxidase (HRP) substrate with H2O2 to resuspend the beads; allowing the color to develop in the dark for as long as needed (from hours, to days or weeks). A hMob-5-9×His medium can be utilized as a positive control. One skilled in the art would know that variations of this protocol are possible. For example, the GBA beads may be added to the sample prior to the addition of the biotinylated Mab/streptavidin-HRP mixture, alkaline phosphatase labeled streptavidin can be used, wash times may vary, spin times may vary and development times may vary. By utilizing this method, representative results for a standard curve were obtained.

OD405 (hMob-5 2 ng/ml): 0.216
OD405 (hMob-5 10 ng/ml): 0.941
OD405 (hMob-5 20 ng/ml): 1.881
B1: hMob-5: human homolog of Mob-5, secreted protein over expressed in colon cancer (protein)
chain: MNFQQRLQSLWTLASRPFCPPLLATASQMQMVVLPCLGFTLLLWSQVSGAQGQEFHFGPCQVKGVVPQKLWEAFWAVKDTMQAQDNITSARLLQQEVLQNVSDAESCYLVHTLLEFYLKTVFKNYHNRTVEVRTLKSFSTLANNFVLIVSQLQPSQENEMFSIRDSAHRRFLLFRRAFKQLDVEAALTKALGEVDILLTWMQKFYKL
